Measurements published in article PMC4950607.

System: RsmA (His6-Thb-RsmA) (Pseudomonas aeruginosa)
Test: EMSA
Settings: 17 nt 3' extension hybridized to DNA primer

Substance: RsmW sRNA, 3'-extended, labeled
- Kd: 0.0115 µM
